Test results published in PMC7335187, “Super-assembly of ER-phagy receptor Atg40 induces local ER remodeling at contacts with forming autophagosomal membranes” (Nature Communications, 2020).

How the values were obtained:
Assay in all cases: ITC
[1] = molecular target: human GABARAP (1-116), O95166; settings: chain shown with the change
[2] = molecular target: T1, FAM134B^444–470 peptide, Q9H6L5; settings: chain shown with the change
T1 chain: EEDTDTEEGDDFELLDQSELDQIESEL

[3] = molecular target: T2, SEC62^355–376 peptide, Q99442; settings: chain shown with the change
T2 chain: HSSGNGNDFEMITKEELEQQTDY

[4] = molecular target: T3, Atg8 (1-116) K26P, P38182; settings: chain shown with the change; Atg8 (1.8 mM)
T3 chain: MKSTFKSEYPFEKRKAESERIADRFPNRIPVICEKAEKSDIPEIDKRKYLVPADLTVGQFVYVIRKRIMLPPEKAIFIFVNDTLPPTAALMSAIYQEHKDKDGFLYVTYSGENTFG

GPHSSGNGNDFAMITKEALEQQTDY [SEC62^355–376 peptide, Q99442 E364A; E370A]
Kd [1]: 35.1 µM

B1: human GABARAP (1-116), O95166 R67A (protein)
chain: MKFVYKEEHPFEKRRSEGEKIRKKYPDRVPVIVEKAPKARIGDLDKKKYLVPSDLTVGQFYFLIRKAIHLRAEDALFFFVNNVIPPTSATMGQLYQEHHEEDFFLYIAYSDESVYG
Kd [2]: 1.88 µM | Kd [3]: 9.43 µM

EFPNDYAFMEAILDET [Atg40^237–252 peptide, Q99325 D243A; D247A]
Kd [4]: 83.3 µM

GPEEDTDTEEGDDAELLDQSELDQIESELY [FAM134B^444–470 peptide, Q9H6L5 F455A]
Kd [1]: 3.55 µM
